The record followed here is the supplement of paper PMC5998384.

For series [1], the system named is HeLa Kyoto. The experiment in a line: solubility change mitosis vs G1/S (difference of NP-40 vs SDS log2 ratios) (log2 ratio difference); higher = more soluble in mitosis.
Series [2] concerns HeLa Kyoto. The experiment in a line: solubility in G1/S (NP-40 vs SDS abundance) (log2 ratio); higher = more soluble. Particulars: cell cycle stage: G1/S.
Series [3] has as its system HeLa Kyoto. Briefly: melting temperature (median over replicates), in situ; higher = more thermally stable.
Series [4] relates to HeLa Kyoto. Briefly: thermal stability score vs G1/S (z-score of summed log2 fold changes over temperatures); higher = more thermally stable than in G1/S.
Where [5] appears, read: cell cycle stage: early G1 (4.5 h after nocodazole release).
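Wherever melting temperature (median over replicates), in situ is given: HeLa Kyoto cells synchronized by double thymidine or nocodazole block, proteins quantified by TMT10plex mass spectrometry, three independent biological replicates.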
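Wherever solubility change mitosis vs G1/S (difference of NP-40 vs SDS log2 ratios) is given: synchronized HeLa Kyoto cells (double thymidine block for G1/S, nocodazole release for mitosis), protein amounts in NP-40 versus SDS lysates quantified by mass spectrometry, three biological replicates.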
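Wherever solubility in G1/S (NP-40 vs SDS abundance) is given: HeLa Kyoto cells arrested at G1/S by double thymidine block, proteins quantified by TMT10plex mass spectrometry in mild NP-40 versus SDS extracts, three biological replicates.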
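Wherever thermal stability score vs G1/S (z-score of summed log2 fold changes over temperatures) is given: synchronized HeLa Kyoto cells, proteins quantified by TMT10plex mass spectrometry, three biological replicates, mitosis taken 0.5 h after nocodazole release, G1/S directly after double thymidine block.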

For the sequence “MAGQQFQYDDSGNTFFYFLTSFVGLIVIPATYYLWPRDQNAEQIRLKNIRKVYGRCMWYRLRLLKPQPNIIPTVKKIVLLAGWALFLFLAYKVSKTDREYQEYNPYEVLNLDPGATVAEIKKQYRLLSLKYHPDKGGDEVMFMRIAKAYAALTDEESRKNWEEFGNPDGPQATSFGIALPAWIVDQKNSILVLLVYGLAFMVILPVVVGSWWYRSIRYSGDQILIRTTQIYTYFVYKTRNMDMKRLIMVLAGASEFDPQYNKDATSRPTDNILIPQLIREIGSINLKKNEPPLTCPYSLKARVLLLSHLARMKIPETLEEDQQFMLKKCPALLQEMVNVICQLIVMARNREEREFRAPTLASLENCMKLSQMAVQGLQQFKSPLLQLPHIEEDNLRRVSNHKKYKIKTIQDLVSLKESDRHTLLHFLEDEKYEEVMAVLGSFPYVTMDIKSQVLDDEDSNNITVGSLVTVLVKLTRQTMAEVFEKEQSICAAEEQPAEDGQGETNKNRTKGGWQQKSKGPKKTAKSKKKKPLKKKPTPVLLPQSKQQKQKQANGVVGNEAAVKEDEEEVSDKGSDSEEEETNRDSQSEKDDGSDRDSDREQDEKQNKDDEAEWQELQQSIQRKERALLETKSKITHPVYSLYFPEEKQEWWWLYIADRKEQTLISMPYHVCTLKDTEEVELKFPAPGKPGNYQYTVFLRSDSYMGLDQIKPLKLEVHEAKPVPENHPQWDTAIEGDEDQEDSEGFEDSFEEEEEEEEDDD [SEC63]”, the “solubility change mitosis (log2)” value in the series on HeLa Kyoto [1] was -0.1. The “solubility in G1/S (log2)” value with HeLa Kyoto [2] was -0.14. For the same sequence, the values for the melting temperature in the series with HeLa Kyoto [3] (cell cycle stage: G1/S) and in the series with HeLa Kyoto [3] (cell cycle stage: mitosis) were 53 °C and 53.1 °C, respectively. The thermal stability score in the series with HeLa Kyoto [4] (setting [5]) is -0.144; with HeLa Kyoto [4] (cell cycle stage: mitosis), -1.37.
With “MAGRGGAARPNGPAAGNKICQFKLVLLGESAVGKSSLVLRFVKGQFHEYQESTIGAAFLTQTVCLDDTTVKFEIWDTAGQERYHSLAPMYYRGAQAAIVVYDITNTDTFARAKNWVKELQRQASPNIVIALAGNKADLASKRAVEFQEAQAYADDNSLLFMETSAKTAMNVNEIFMAIAKKLPKNEPQNATGAPGRNRGVDLQENNPASRSQCCSN [RAB5C]”, the “solubility change mitosis (log2)” value in the series on HeLa Kyoto [1] is -0.161. Moreover, the “solubility in G1/S (log2)” value in the series with HeLa Kyoto [2] came out at 0.382. Further, the melting temperature with HeLa Kyoto [3] (cell cycle stage: G1/S) was found to be 58.7 °C; in the series on HeLa Kyoto [3] (cell cycle stage: mitosis), 59.4 °C. Moreover, the thermal stability score in the series on HeLa Kyoto [4] (setting [5]) is -2.16; with HeLa Kyoto [4] (cell cycle stage: mitosis) it was -3.11.
For “MAGRLLGKALAAVSLSLALASVTIRSSRCRGIQAFRNSFSSSWFHLNTNVMSGSNGSKENSHNKARTSPYPGSKVERSQVPNEKVGWLVEWQDYKPVEYTAVSVLAGPRWADPQISESNFSPKFNEKDGHVERKSKNGLYEIENGRPRNPAGRTGLVGRGLLGRWGPNHAADPIITRWKRDSSGNKIMHPVSGKHILQFVAIKRKDCGEWAIPGGMVDPGEKISATLKREFGEEALNSLQKTSAEKREIEEKLHKLFSQDHLVIYKGYVDDPRNTDNAWMETEAVNYHDETGEIMDNLMLEAGDDAGKVKWVDINDKLKLYASHSQFIKLVAEKRDAHWSEDSEADCHAL [NUDT9]”, in the series with HeLa Kyoto [1], the “solubility change mitosis (log2)” value worked out at 0.00145. In addition, in the series with HeLa Kyoto [2], the “solubility in G1/S (log2)” value came out at 0.41. The values for the melting temperature in the series with HeLa Kyoto [3] (cell cycle stage: G1/S) and in the series on HeLa Kyoto [3] (cell cycle stage: mitosis) were 50.3 °C and 50.5 °C, respectively. The values for the thermal stability score in the series with HeLa Kyoto [4] (setting [5]) and in the series with HeLa Kyoto [4] (cell cycle stage: mitosis) were -0.398 and -0.161, respectively.
Turning to “MAGSRQRGLRARVRPLFCALLLSLGRFVRGDGVGGDPAVALPHRRFEYKYSFKGPHLVQSDGTVPFWAHAGNAIPSSDQIRVAPSLKSQRGSVWTKTKAAFENWEVEVTFRVTGRGRIGADGLAIWYAENQGLEGPVFGSADLWNGVGIFFDSFDNDGKKNNPAIVIIGNNGQIHYDHQNDGASQALASCQRDFRNKPYPVRAKITYYQNTLTVMINNGFTPDKNDYEFCAKVENMIIPAQGHFGISAATGGLADDHDVLSFLTFQLTEPGKEPPTPDKEISEKEKEKYQEEFEHFQQELDKKKEEFQKGHPDLQGQPAEEIFESVGDRELRQVFEGQNRIHLEIKQLNRQLDMILDEQRRYVSSLTEEISKRGAGMPGQHGQITQQELDTVVKTQHEILRQVNEMKNSMSETVRLVSGMQHPGSAGGVYETTQHFIDIKEHLHIVKRDIDNLVQRNMPSNEKPKCPELPPFPSCLSTVHFIIFVVVQTVLFIGYIMYRSQQEAAAKKFF [LMAN1]”, the “solubility change mitosis (log2)” value with HeLa Kyoto [1] is -0.0873. Further, in the series on HeLa Kyoto [2], the “solubility in G1/S (log2)” value came out at 0.173. Moreover, the melting temperature in the series with HeLa Kyoto [3] (cell cycle stage: G1/S) amounted to 53.3 °C; in the series on HeLa Kyoto [3] (cell cycle stage: mitosis), 53.5 °C. The thermal stability score in the series with HeLa Kyoto [4] (setting [5]) amounted to 3.5; in the series with HeLa Kyoto [4] (cell cycle stage: mitosis), 5.07.
In the case of “MAGTGLVAGEVVVDALPYFDQGYEAPGVREAAAALVEEETRRYRPTKNYLSYLTAPDYSAFETDIMRNEFERLAARQPIELLSMKRYELPAPSSGQKNDITAWQECVNNSMAQLEHQAVRIENLELMSQHGCNAWKVYNENLVHMIEHAQKELQKLRKHIQDLNWQRKNMQLTAGSKLREMESNWVSLVSKNYEIERTIVQLENEIYQIKQQHGEANKENIRQDF [BCAS2]”, the “solubility change mitosis (log2)” value in the series with HeLa Kyoto [1] is 0.721. In the series with HeLa Kyoto [2], the “solubility in G1/S (log2)” value is -0.134. Also, the melting temperature with HeLa Kyoto [3] (cell cycle stage: G1/S) worked out at 50.4 °C; in the series with HeLa Kyoto [3] (cell cycle stage: mitosis), 50.3 °C. The thermal stability score in the series with HeLa Kyoto [4] (setting [5]) is -0.858; with HeLa Kyoto [4] (cell cycle stage: mitosis), -0.925.
